Laboratory results published in the nanobody polyreactivity screen of Harvey et al. (2022).

Assay: yeast display, Sf9 membrane polyspecificity reagent, FACS + sequencing; frameworks hold sequencing errors
Method in brief: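 Sorting gates, low and high (top ~1%), were placed on anti-HA fluorescence to track expression and on streptavidin fluorescence to track reagent binding. A clone's polyreactivity label is taken from the gate it came out of. The reagent was 10% biotinylated, detergent-solubilized Sf9 membrane, applied for 1 hour at 4 °C to galactose-induced yeast display cells.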

Row | Sequence | polyreactivity (PSR sort gate)
1 | QVQLVESGGGLVQAGGSLRLSCAASGRTFGSNAMGWYRQAPGKERELVAAISGRTDSTYYADSVKGRFTISRDNAKNTVYLQMNSLKPEDTAVFYCAADSGDVLYYYIRYNYWGQGTQVTVSS | low polyreactivity
2 | QVQLVESGGGLVQAGGSLRLSCAASGRTFGSNAMGWYRQAPGKERELVAAISSSDSTNYADSVKGRFTISRDNAKNTVYLQMNSLKPEDTAVYYCNAGHPVRSPGYDYWGQGTQVTVSS | low polyreactivity
3 | QVQLVESGGGLVQAGGSLRLSCAASGRTFGSNTMGWYRQAPGKERELVAAISGTGTSTYYADSVKGRFTISRDNAKNTVYLQMNSLKPEDTAVYYCAAGWYKYLFQPHDYWGQGTQVTVSS | low polyreactivity
4 | QVQLVESGGGLVQAGGSLRLSCAASGRTFGSYAMGWYRQAPGKERELVAAITWSGGITYFADSVKGRFTISRDNAKNTVYLKMNSLKPEDTAVYYCNVYVSAGEEDEYWGQGTQVTVSS | low polyreactivity
5 | QVQLVESGGGLVQAGGSLRLSCAASGRTFGSYAMGWYRQAPGTERELVAAITWSGTGTYYADSVKGRFTISRDKAKNTVYLQMHSLKPEDTAVYYCNTDRWYAYDWGQGTQVTVSS | high polyreactivity
6 | QVQLVESGGGLVQAGGSLRLSCAASGRTFGTNAMGWYRPAPGKERELVAAISWRGTSTYYADSVKGRFTISRDNAKNTVYLQMNILKPEVTAVYYCAADFSYTSYATRYQGDYWGQGTQVTVSS | low polyreactivity
7 | QVQLVESGGGLVQAGGSLRLSCAASGRTFGTNAMGWYRQAPGKERELVAAISRRGGSTYYADSVKGRFTISRDNAKNTVYLQMNSLKPEDTAVYYCAKTIGLKHEDEYWGQGTQVTVSS | low polyreactivity
8 | QVQLVESGGGLVQAGGSLRLSCAASGRTFGTNAMVWYRQAPGKERELVAAITWRGGSTSYADSVKGRFTISRDNAKNTVYLQMNSLKPEDSAVYYCAVRLRYPGNTFYYWGQGTQVTVSS | high polyreactivity
9 | QVQLVESGGGLVQAGGSLRLSCAASGRTFGTNGMGWYRQAPGKERELVAVITWTGGSTYYADSVKGRFTISRDNAKNTVYLQMNSLKPEDTAVYYCAAKYSHLGYNYWGQGTQVTVSS | high polyreactivity
10 | QVQLVESGGGLVQAGGSLRLSCAASGRTFGTYAMGWYRQAPGKERELVAAISSGGSTYADSVKGRFTISRDNAKNTVYLQRNSLTPEETAVYYCNADFRARNYHYYPRRFKYYYWGQGTQVTVSS | high polyreactivity
11 | QVQLVESGGGLVQAGGSLRLSCAASGRTFGTYAMGWYRQAPGKQRELVAAISSGGSTYADSVKGRFTISRDNAKNTVYLQMNSLKPEDTAVYYCNADYRARNYHYYPRRFKYYYWGQGTQVTVSS | high polyreactivity
12 | QVQLVESGGGLVQAGGSLRLSCAASGRTFGVNTMGWYRQAPGKERELVASISTSGGSTYADSVKGRFTISRDNAKNTVYLQMISLKPEDTAVYYCARTYYWYLRVDYWGQGTQVTVSS | low polyreactivity
13 | QVQLVESGGGLVQAGGSLRLSCAASGRTFGVYAMGWYRQAPGKDSELVEAINNGGSTNYADSVKGRFTISRDNAKNTVYLQINSLKPEDTAVYNCNAVVGYRHWPYYRGEYDYWGQGTQVTVSS | low polyreactivity
14 | QVQLVESGGGLVQAGGSLRLSCAASGRTFGVYAMGWYRQAPGKERELVAAIRWSGGGTYYADSVKGRFTISRDNAKNTVYLQMNSLKPEDTAVYYCNAEIWTEGGYWGQGTQVTVSS | low polyreactivity
15 | QVQLVESGGGLVQAGGSLRLSCAASGRTFGWKARGWYRQAPGKEMELVAAISWSGTNTYDADSVKGRFTISRDNAKNTVYLQMNSLKPEDTAVYYCAARDWTGSWNGYWSWEYNYWGQGTQVTVSS | low polyreactivity
16 | QVQLVESGGGLVQAGGSLRLSCAASGRTFGWSAMGWYRQAPGKERELVAAISSSGGSTYYADSVKGRFTISRDNAKNTVYLQMNSLKPEDTAVYYCAKESYRGGFDYWGQGTQVTVSS | high polyreactivity
17 | QVQLVESGGGLVQAGGSLRLSCAASGRTFGWYDMGWYRQAPGKERELVAAISWSGSSTYYADSVKGRFTISRDNAKNTVYLQMNSLKPEDNAVYYFNDVIRSDLFSYLDGRYDYWGQGTQVTVSS | high polyreactivity
18 | QVQLVESGGGLVQAGGSLRLSCAASGRTFGYNAMGWYREAPGKERELVAAITLGGITHYADSVKGRFTISRDNAKNTVYLQMNSLKPEDTAVYYCAKRGPYYNDDEYYWGQGTQVTVSS | low polyreactivity
19 | QVQLVESGGGLVQAGGSLRLSCAASGRTFGYNAMGWYRQAPGKERELVAAIRTIGDSTYYADSVKGRFTISRDNAKNSVYLQMNSLKPEDTAVYYCAARKLRSRYDYWGQGTQVTVSS | high polyreactivity
20 | QVQLVESGGGLVQAGGSLRLSCAASGRTFGYNAMGWYRQAPGKERQFVAAISWSGGRTYYADSVKGRFTISRDNAKNTVYLQMNSLKPEDTAVYYCAAAAPHLSAKMDYWGQGTQVTVSS | low polyreactivity
21 | QVQLVESGGGLVQAGGSLRLSCAASGRTFGYNAMGWYSQAPGKERELVAAISRSGGRTYYADSVKGRFTISRDNAKNTVYLQMNSLKPEDTAVYYCAAESYHRGYDYWGQGTQVTLSS | high polyreactivity
22 | QVQLVESGGGLVQAGGSLRLSCAASGRTFGYNVMGWYRQAPGKERELVAAISSGGNTYYADSVKGRFTISRDNAKNTVYLQMNSLKPEDTAVYYCNARQYRYLSDRMNYWGQGTQVTVSS | low polyreactivity

Row | Sequence | polyreactivity (PSR sort gate)
23 | QVQLVESGGGLVQAGGSLRLSCAASGRTFGYNVMGWYRQAPGKERELVAVINGRGGSTYYADSVKGRFTISRDNAKNTVYLQMNSLKPEDTAVYYCNVVSGGYFEYDYWGQGTQVTVSS | high polyreactivity
24 | QVQLVESGGGLVQAGGSLRLSCAASGRTFGYYAMGWYRQAPGKERELVAAINWRGDSTYYADSVKGRFTISRDNAKNTVYLQMNSLKPEDTAVYYCAALVRGYDRSIRMDYWGQGTQVTVSS | high polyreactivity
25 | QVQLVESGGGLVQAGGSLRLSCAASGRTFGYYAMGWYRQAPGKERELVAAISSGGGTYYADSVKGRFTISRDNAKNTVYLLMNSLKPEDTAVYYCAATGWVYWGQFDYWGQGTQVTVSS | low polyreactivity
26 | QVQLVESGGGLVQAGGSLRLSCAASGRTFGYYAMGWYRQAPGKERELVAAISTRSGSTYYADSVKGRFTISRDNAKNTVYLQMNSLKPEDTAVYYCAADSYPDYDYWGQGTQVTVSS | low polyreactivity
27 | QVQLVESGGGLVQAGGSLRLSCAASGRTFGYYAMGWYRQAPGKERELVAAITDSGDITYYADSVKGRFTISRDNAKNTVYLQMNSLKPEDTAVYYCAADSYEFWSEVYTGESWGQGTQVTVSS | low polyreactivity
28 | QVQLVESGGGLVQAGGSLRLSCAASGRTFGYYAMGWYRQAPGKERELVAAITGSGGSTYYADSVKGRFTISRDNAKNTVYLQMNSLKPEDTAVYYCAVESVRTRGWIRLDYWGQGTQVTVSS | high polyreactivity
29 | QVQLVESGGGLVQAGGSLRLSCAASGRTFGYYAMGWYRQAPGKERELVASITTGGSTDYADSVKGRFTISRDNAKNTVYLQMNSLKPEDTAVYYCAAKPNPYTKARYYYWGQGTQVTVSS | high polyreactivity
30 | QVQLVESGGGLVQAGGSLRLSCAASGRTFGYYGLGWSRQAPGKERELVAAITGSGGSTYYADSVKGRFTISRDNAKNTVYLQMNSLKPEDTAVYYCNTARRHGQTQGGDYWGQGTQVTVSS | high polyreactivity
31 | QVQLVESGGGLVQAGGSLRLSCAASGRTFGYYVMGCYRQAPGKERELVAAISASGGSTYYADSVKGRFTISRDNAKNTVYLQMNSLKPEDTAVYYCNADYLSQPDWYYFYLFDYWGQGTQVTVSS | high polyreactivity
32 | QVQLVESGGGLVQAGGSLRLSCAASGRTFHAYAMGWSRQAPGKGRELVAAITRTGTTHYADSVKGRFTISRDNAKNTVYLQMNSLKPEDTAVYYCAAQHVRVDAQFVLQGYDYWGQGTQVTVSS | low polyreactivity
33 | QVQLVESGGGLVQAGGSLRLSCAASGRTFHDYAMGWYRQAPGKERELVASISSGGSTYYADSVKGRFTISRDNAKNTVYLQMNSLKPEDTAVYYCAAYYYSTLYYRYDYWGQGTQVTVSS | low polyreactivity
34 | QVQLVESGGGLVQAGGSLRLSCAASGRTFHGYGMGWYRQAPGKERELVAAISWSGGSTYYADSVKGRFTISRDNAKNTVYLHMNSLKAEDTAVYYCAADVYRYWISEYDDYWGQGTQVTVSS | low polyreactivity
35 | QVQLVESGGGLVQAGGSLRLSCAASGRTFHHNTMGWYRQAPGKERELVAAISSGGSTNYADSVKGRFTISRDNAKNTVYLQMNSLKPEDTAVYYCNADGGFLQRTGYDYWGQGTQVTVSS | low polyreactivity
36 | QVQLVESGGGLVQAGGSLRLSCAASGRTFHIYAMGWYRQAPGKERELLAAINYSGGSTYYADSVKGRFTISRDNAKNSVYLQMNSLKPEDTAVLYCAAVVYNVPWWFEYDYWGQGTQVTVSS | low polyreactivity
37 | QVQLVESGGGLVQAGGSLRLSCAASGRTFHPYAMGWYRQAPGKERELVAAITISTNYADSVKGRFTISRDNAKNTVYLQMNSLKPEDTAVYYCNKDGTHEVYVGGYEDDYWGQGTQVTVSS | low polyreactivity
38 | QVQLVESGGGLVQAGGSLRLSCAASGRTFHRYVMGWYRQAPGKERELVAAITSGGRTTYADSVKGRFTISRDNAKNTVYLQMNSLKPEDTAVYYCAAELTVRGTWVQQRTFRYDYWGQGTQVTVSS | low polyreactivity
39 | QVQLVESGGGLVQAGGSLRLSCAASGRTFHSYAMGWYRQAPGKERELVAAINNGGGTYYADSVKGRFTISRDNAKNTVYLQMNSLKPEDTAVYYCAADRYRYRYNAPRYAYDYWGQGTQVTVSS | high polyreactivity
40 | QVQLVESGGGLVQAGGSLRLSCAASGRTFHYYAMGWYRQAPGKERELVAAISSTGGSTYYADSVKGRFTISRDNAKHPVYVQMNSLKPADTAVYSCAARQFGYYHVRNEYWGQGTQVTVSS | high polyreactivity
41 | QVQLVESGGGLVQAGGSLRLSCAASGRTFHYYAMGWYRQAPGKERELVASITYNGGDTYYADSVKGRFTISRDNAKNTVYLQMNSLKPEDTAVYYCAAEYYGHRYDYWGQGTQVTVSS | low polyreactivity
42 | QVQLVESGGGLVQAGGSLRLSCAASGRTFIEYAMGWYRQAPGKERELVAAISRNDGGSTYYADSVKGRFTISRDNAKNTVYLQMNSLKPEDTAVYYCAARRYISAHVRYGSWGQGTQVTVSS | high polyreactivity
43 | QVQLVESGGGLVQAGGSLRLSCAASGRTFIFNAMGWYRQAPGKERELVAAISSGGGTNYADSVKGRFTISRDNAKNTVYLQMNSLKPEVTAVYYCAADPRDHYSYVYDGYKYDYWGQGTQVTVSS | low polyreactivity
